Results published in article PMC5700200.

Target: FLAG-tagged β1 adrenergic receptor (UniProt P34971)
Assay: proximity ligation; in situ PLA (Duolink) in HEK293 cells stably expressing FLAG-tagged β1AR or β2AR; 10 μM carvedilol, isoproterenol or other βAR ligands for 5 min, with or without 10 μM propranolol for 30 min; fixed, permeabilised; rabbit anti-β1AR (or β2AR) with mouse anti-Gαi

Sequence of UniProt P34971 (P34971 whole entry): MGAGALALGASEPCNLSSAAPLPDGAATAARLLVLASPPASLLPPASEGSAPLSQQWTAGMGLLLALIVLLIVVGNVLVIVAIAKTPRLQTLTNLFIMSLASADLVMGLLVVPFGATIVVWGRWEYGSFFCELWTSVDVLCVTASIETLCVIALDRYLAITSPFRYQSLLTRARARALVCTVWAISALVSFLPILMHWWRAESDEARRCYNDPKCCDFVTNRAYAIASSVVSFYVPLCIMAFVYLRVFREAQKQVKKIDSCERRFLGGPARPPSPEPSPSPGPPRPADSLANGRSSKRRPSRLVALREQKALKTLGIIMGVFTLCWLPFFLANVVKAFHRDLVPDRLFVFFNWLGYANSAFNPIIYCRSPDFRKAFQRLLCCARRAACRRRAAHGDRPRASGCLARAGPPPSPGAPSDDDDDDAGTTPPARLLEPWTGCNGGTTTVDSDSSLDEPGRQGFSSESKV

Gαi (from UniProt P08754 1-354) (natural protein)
fold increase in the PLA signal after carvedilol over unstimulated cells: > 2 fold
